Laboratory results taken from the nanobody polyreactivity screen of Harvey et al. (2022).

Assay: yeast display, Sf9 membrane polyspecificity reagent, FACS + sequencing; frameworks hold sequencing errors
How it was run: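 Synthetic nanobody libraries on Saccharomyces cerevisiae BJ5465 were galactose-induced for 36–48 hours, stained 1 hour at 4 °C with 10% biotinylated, detergent-solubilized Sf9 membrane reagent and enriched on streptavidin microbeads. FACS then separated cells into low and high (top ~1%) gates by anti-HA (expression) and streptavidin (reagent binding) fluorescence. Genes were colony-PCR amplified, MiSeq 2 × 250 sequenced and CDR-length filtered. A clone's polyreactivity label is that of its gate of origin.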

Sequence	polyreactivity (PSR sort gate)
QVQLVESGGGLVQAGGSLRLSCDASGSIFYDYAMGWYRQAPGKERELVAAITSDTTTNYADSVKGRFTISRDNAKNTVYLQMNSLKPEDTAVYYCNTPPQWLGRYITLTFDYWGQGTQVTVSS	low polyreactivity
QVQLVESGGGLVQAGGSLRISCAASGNIFVDYAMGWYTQAPGKERELVATITRTGDSTTYADSVKGRFTISRDNAKNTVYLQMNSLKPEDTAVYYCNTDLRLVYRTKGFISWGYDYWGQGTQVTVSS	low polyreactivity
QVQLVESGGLLVQAGGSIRLRCDASGIILRGYSLGWYRQAPGKERELVASISRGGSTNYADSVKGRFTISRDNAKTTVYLQMNSLKPEDTAVYSCNARGCNGRSDYDYWGLGTQVTVSS	high polyreactivity
QVQLVESGGGLVQAGGSLRLSCAASGRTFPGNDMGWYRQAPGKERELDAAISSDDSTYYADSVKWRFTMSRDNAKNTVYLKMNSLKPEDTAVYYCNAEYYEGYIGVPGSYWPYEYWGQGTQVTVSS	low polyreactivity
QVQLVESGRGLVQAGGILRLFCAASGSTFVSYAIAWYRQAPGKERELVAAISRSGGSTYYADSVKGRFTISRDNAKNTVYLQMNSLKTEDTAVYYCAAVRYWSDYDYWGQGTKVTVSS	high polyreactivity
QVQLVESGGGLVQAGGSLRLSCAASGFTFSYYAMGWYRQSPGKERELVASISRSGNTYYADSVKGRFTISRDNAKNTVYLQMKSLKPEDTAVYYCAAKRKSYYSYNFDYWGQGTQVTVSS	high polyreactivity
QVQLVESGGGLVQAGASLRLSCAASGSIFKDYAMGWYRQAPWKERDLLAAITSRTSTTYADSVKGRFTISRDNAKNTVYLQMNSLKPEDTAVYYCAVEDLGSEGWGWYKEMDYWGQGTQVTVSS	low polyreactivity
QDQLVESGGGLVQAGGSLRLICAASGITFLVNAMGWYRQAPGKERELVAGITSGDSTNYADSVKGRFTISRDNAKNTVYLQMNSLKPEDTAVYYCATVLYVGSGGGGILWDDDYWGQGTQVTVSS	low polyreactivity
QVQHVESGGGLVQAGGSLRLSCASSGRIFSDYAMGWYRPAPGKERELVAAISRSGTRTYYADSVKGRFTISRDNAKNTVYFQMISLKPEDTAVYYCAAKTQSGRAGQEEDYWGQGTQVTVSS	high polyreactivity
QVQLVESGGGLVQAGGSLRLSCAASGSTFFKNAMGWYRQAPGKESELVAGISYGGGRTYYADSVKGRFTISRDNAKNTVYLQMKSLKPEDTAVYYCNTVTSPAPYYSYDSWGQGTQVTVSS	high polyreactivity
QLQLQESGGGLVQAGGSLRLSCAASGSNSRYYDMGWYRQAAGKEREFVAGISGGAITYYEDSVKGRFTISRDNANITVYVQMNSLKPEDTAVYYCAADTGDYQYHSYWGQGTQVTVSS	low polyreactivity
QVQLVESGGGLLQAGGSLRLSCAASGFTFGFYGRGWYRQAPGKERELVAAISYSGGTTYYADSVKARFTIARDNAKNTVYLQMNCLKPQDTAVNYCNTQSRETEDADYWGQGTQVTVSS	high polyreactivity
QVQLVESGGGLVQAGGSLRLSCAASGFTFVTNAMGWYRQAPGKERELVAAISWNDDDTYYADSVKGRFTISRDNAKNTVYLQMNSLKPEDTAVYYCAKDEYRVKWWGWDIYDYWGQGTQVTVSS	low polyreactivity
QVQLLESGGGLVQAGGSLRLTCGASGITFSVNTMGWYRQAPGKDRELVAAFTSAGGTYYADSVKGRFTISRDTAKNTVYFQMISQKPEDTAVYYCATPYDIQWASESHDYWGQGTQVTVSS	low polyreactivity
QVQLVESGGGLVQAGGSLRLSCAASGITFTRYAMGWYRQAPGKERELVAAISSGGRTNYADSVKGRFTISRDNAKNTVYLQMNSLKPEDTGVYYCNAAGHRWDPRYHYWGQGTQVTVSS	high polyreactivity
QVQLVESGGGLVQAGGSLRLSCAASGIIFGYYAMGWYRQAPGKERELVAAISSIGGSTYYADSVKGRFTISRDNAKNTVYLQMNSLKPEDTAVYYCNAASSRWPEYDYWGQGTQVTVSS	high polyreactivity
QVQLVESGGGLVQAGGSLRLSCAASGRILYRNAMGWYRQATGKERELVAAITTRGTSTYYADSVKGRFTISRDNAKNTVYLQMNSLKPEDTSVYYCAADSWFSYRGPLYYWGQGTKVTVSS	high polyreactivity
QVQLVESGGCLVQAGGSLRLSCAASGSTFSPYAMGWYRQAPGKERELVAGITGRGGRTYYADSVKGRFTISRDNAKNTVYLQMNSLKPEDTAVYYCAAKYYGNKRDLYYWGQGTQVTVSS	low polyreactivity
QVQLVESGGGLVQAGGSLRLSCAASGSTLSFNAMGWYRQAPGKERELVAGITYSGGSTYYADSVKGRFTISRDNAKNTVYLQMNILKPEDTAVYYCNKASGVYYGHLDYWGQGTQVTVSS	low polyreactivity
QVQLVESGGGLVQAGGSLRLSCAASGITYFEYAMGWYRQATGKETELVAGIRFSGSTTYYADSVKGRFTISRDNAKNTVYLQMNSLKPEDTAVYYCNVDYYSGLYDYDSWGQGTQVTVSS	low polyreactivity
QVQLVESGGGLVQAGGSLRLSCAASGSTFYIYAMGWYRQAPGKERELVAAITWSGGRTFYADSVKGRFTISRDNAKNTVYLHMNSLKPEDTAVYFCSARFWSDKTGSRYYYWGQGTQVTVSS	high polyreactivity
QVQLVESGGGLVQAGGSLRLTCAASGFIFEEYAKGWYRPAPGKERELVAAISRRGGSTYYADSVKGRFTISRDNATNTVYLQMNSLKPEDTAVDYCATDRRYNYWGQGTQVTVSS	high polyreactivity

Sequence	polyreactivity (PSR sort gate)
QVQLVDSGAGLVQAGGSLRLSCAASGRISYVYAMGWYRQAPGKDRELVAGITWSDGSTFYADSVKGSFTISRDNAKNTVYLQMNSLKPEDTAVYYCAARFNRKILGRYYFWGQGTQVTVSS	high polyreactivity
QVQLVESGGGLLQEGGSLRLSCAASGRTFYYYTMGWYRQAPGIERELVAAITHGGSTYYADSVKGRFTISRDNAKNTVYLQMNSLTPEDTAVYYCNAVYHYPYEYWGHGTQVTVSS	high polyreactivity
QVQLVESGGGLVQAGGSLRLSCAASGRTFGANDMGWYRQAPGKDSELVAAITYSGGRTNYADSVKGRFTISRDNAKNSVYLQMNSLKPEDTAVYYCAAGGWRDRSRYNYWGQGTQVTVSS	high polyreactivity
QVQLVESGGGLVQAGGSLRLSCAASGSILSYYAMGWYRQAPGKERELVAAISSTGSTNYADSVKGRFTISRDNAKNTLYLQMNSLKPEDTAVYYCATDGDPYADEGGYWGQGTQVTVSS	high polyreactivity
QVQLVESGGGLVQAGGSLRLSCAASGSIFGFYAMGWYRQAPGKERELVAGISYGDSSTYYADSVKGRFTISRDNAKNTVYLQMNSLKPEDTAVYYCAAGHRQKYNWGRYDYWGQGTQVTVSS	low polyreactivity
QVQLVESGGGLVQAGGSLRISCAASGSTFQGYAMGWYREAPGKERELVAAISGRSGSTYYADSVKGRFTISRDNAKNTVFLTMNSLKPVDSAVYYCNARFNRSRRTYDYWVQGTQVTVSS	high polyreactivity
QVQLVESGGGLVQAGGSLRLSCAASGLTIRRYVMGWYRQAPGKERELVAAINWNGGSTYYADSVKGRFTISRDNAKNTVYLQMNSLKPEDTAVYYCAARSTYVYDYNYWGQGTQVTVSS	high polyreactivity
QVQLVESGGGLVQAGGSLRLSCAASGFTFNSYAMGWYRQAPGKERELVAAITSSGGLTYYADSVKGRFTISRDNAKNTVYLQKNSLKPEDTAVYYCAARPGGKVATIYDYWGQGTQVTVSS	low polyreactivity
QVQLVESGGGLVQAGGSLRLSCAASGRTFYGYAMGWYRQPPGKERELVATISGSGGTTYYADSVKGRFTISRDNAKNTVYLQMNSLKPEDTAVYYCAADRYLYFYWWPHVGGSPTYGYWGQGTQVTVSS	high polyreactivity
QVQLVESGGGLVQAGGSHRLSCAASGLTFDHYAMGWYRQAPGKERELVAAISRTGTRTYYADSVKERFTISRDNAKNTVYLQMNSLKPEDTAVYYCNAGTYWQGDSYDYWGQGTQVTVSS	low polyreactivity
QVQLVESGGGLVQAGGSLRLSCAASGYTVLYAIGWYRQAPRKDRELVAAISSRTGTTYYADSVKGRFTISRDNAKNSVYLQMNSLKREDTAVYYCNVEYFYYFRENGDYWGQGTQVTVSS	low polyreactivity
QVQLVESGGGLVQAGGSLRLTCAASGNTFVGNAMGWYRQAPGKERELVAAISRRGGSTYYADSVKGRFTISRDYAKNTVYLQMNSLKPEDTAEYYCAVGWAGRYDYWGQGTQVTVSS	low polyreactivity
QVQLVESGGGLVQAGGSLRLSCAASGIIFGKNAMGWYRHAPGKERELVAAISSSGGSTYYADSVKGRFTISRDNAKNTVYLQMNSLKPEDTAVYYCATERGSRRSGSRMDYWGQGTQVTVSS	high polyreactivity
QVQLVESGGGLVQAGGSLRLSCAASGSTFRQYTMGWYRQAPGKERELVAAISRGCGNTYYADSVKGRFTISRDNAKNTVYLQMNSLKPEDTAVYYCAADRSYSGDSWGQGTQVTVSS	high polyreactivity
QVQLVESGGGLVQAGGSLRLSCAASGRIFTYYAMGWYRQAPGKERQLVAAISSGTGTNYADSVKGRFTNSRDNAKNTVYLQMNSLKPEDTAVYDCAADRQHVVVGYYYWGQGTQVTVSS	low polyreactivity
QVQLVESGGGLVQAGGSLRLSCAASGLTFVPNARGWYRQAPGKERELVAASSNNGGRTYYADSVKGRFTISRDNAKKTVYLQMNSLKPEDTAVYYCAKYLSPGERHSYDYWGQGTQVTVSS	high polyreactivity
QVQLVESGGGLVQAGGSLRLSCAASGIIFGGYAMGWYRQAPGKERELVASISYSGGSTYYADSVKGRFTISRDNAKNTVYLQMNSLKPEDTAVYYCAAGYPRTPAAGYYWGQGTQVTVSS	high polyreactivity
QVQLVESGGGLVQAGGSLRLSCAASGSILWLNAMGWYRPAPGKERELVADITRGGSTYYADSVKGRFTISRDNAKNTVYLQMNSLKPEDTAVYYCAADAYTGQIPYYYFEHYYWGQGTQVTVSS	high polyreactivity
QVQLVESGGGLVHAGGSLRLSCAASGSILNGYVMGWYRQAPGKERELVGTYYADSVKGRFTISRDNAKNTVYLQMNSLKPEDTAVYYCAADIGDGSEFDYWGLGTQVTVSS	low polyreactivity
QVQLLESGGGLGQAGGSLRLSCAASGSILSINGMGWYRQAPGKERELVATIDGSDGSTFYADSVKGRFTISRDNAKNTVYLQMNSQKPEDTAVYYCAAENFWQTKEYDYWGQGTQVTVSS	low polyreactivity
QVQLVESGRGLVQAGGSLRLSCAASGSIFNCYDMGWYRQAPGKERELVADIRSAGSTYYADSVKGRFTISRDNAKNTVYLQMNSLKPEDTAVNYCAAEAPVQPFYVFNTGIYELDYWGQGTQVTVSS	low polyreactivity
